Test results taken from the nanobody polyreactivity screen of Harvey et al. (2022).

Assay: yeast display, Sf9 membrane polyspecificity reagent, FACS + sequencing; frameworks hold sequencing errors
Outline: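 A synthetic nanobody library was expressed on Saccharomyces cerevisiae BJ5465 by galactose induction for 36–48 hours. The library was stained for 1 hour at 4 °C with 10% biotinylated, detergent-solubilized Sf9 membrane reagent and enriched with streptavidin microbeads before FACS. Low and high (top ~1%) gates were set on anti-HA fluorescence for expression and streptavidin fluorescence for reagent binding, and each polyreactivity label reflects the gate of origin.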

For “QVQLVESGGGLVQAGGSLRVSCAASGRTFGIYAMGWYRQAPGKEREFVAAISWSGTSTHYADSVKGRFTISRDNAKNTFYLQMNSLKPEDTAVYYCATRRSHYGKYDYWGQGTQVTVSS”, which “polyreactivity (PSR sort gate)” value is on record?
The value was “high polyreactivity”.

For “QVQLVESGGGLVQAGGSLRVSCAASGSIFIGYAMGWSRQAPGKERELVAAINDSGDRTYYADSVKGRFTISRDNAKNTVYLQMNSLKPEDTAVYYCAADLVSLDPEYDYWGQGTQVTVSS”, which “polyreactivity (PSR sort gate)” value is on record?
Its value is “low polyreactivity”.

For “QVQLVESGGGLVQAGGSLRVSCAASGSNFGGYAMGWYRQAPGKERELVAAISSRGIDTTYADSVKVRFTISRDNAKNTVYLQMYSLKPDDTAVYYCAEFVSDATVGPSNGLDYWGQGTQVTVSS”, which “polyreactivity (PSR sort gate)” value is on record?
The value was “low polyreactivity”.

Which “polyreactivity (PSR sort gate)” value does the source give for “QVQLVESGGGLVQAGGSLRVSCAASGSTCDVNAMGWYRQAPGKERELVAAMSWSDDATYYAYSVKGRFTISRDNAKNTVYVQMNSLKPEDTAVYYCAADGRYGWYYAVYNGEDYWGQGTQVTVSS” here?
Its value is “high polyreactivity”.

Which “polyreactivity (PSR sort gate)” value does the source give for “QVQLVESGGGLVQAGGSLRVSCAASGSTFPYYTMGWYRQAPGKERELVDVMTIRGGSTYYAHSVNGRCTHSRDNAKNTVNLQMNSLKPEDTAVNYCAPTGQLQGWYDMYYWGQGTQVTVSS” here?
The value was “low polyreactivity”.

For “QVQLVESGGGLVQAGGSLRVSCAASGSTFVRNAMGGYRQAPGKETELVAFISTSGTRTHYADSVKGRFTISRDNAKNTVYFQMNSLKPEDTAVYYCNRRVYGIVTRDYWGQGTQVTVSS”, which “polyreactivity (PSR sort gate)” value is on record?
Its value is “high polyreactivity”.

With “QVQLVESGGGLVQAGGSLRVSCAASGYTFVIYAMGWYRQAPGKERELVAAITTIGGRTYYADSVKGRFTISRDNAKNTVYLQMYSLKPEDTAVYYCATAAVTPVWYDYWGQGTQVTVSS” as the sequence, how does the “polyreactivity (PSR sort gate)” value read?
Its value is “low polyreactivity”.

For “QVQLVESGGGLVQAGGSLRVSSAASGRIFYLYVMAWYRQAPGKERELVAGITGSGGNTYYADSVKGRCTISRDNAKNTVDLQMNSLKPEDTAVYFCNDRFRARPRMGYWGQATQVTVSS”, which “polyreactivity (PSR sort gate)” value is on record?
Its value is “high polyreactivity”.

For “QVQLVESGGGLVQAGGSLSISCAASGLTFSYYAMGWYRQAPGKERELGAAIAGRTGRPYYADSVKGRFTISRDNAKNTVYLQMNSLKPEDTAVFYSAAGYTFSRYDDDYWGQGTQVTVSS”, which “polyreactivity (PSR sort gate)” value is on record?
Its value is “low polyreactivity”.

For “QVQLVESGGGLVQAGGSLSISCAASGRNFGYYTMGWYRQAPGKERELGAAITSGGRTNYADSVKGRFTISRDNAKNTVYLQMNSLKPEDTAVYYCNARRDSTRRGTWYEYWGQGTQVTVSS”, which “polyreactivity (PSR sort gate)” value is on record?
The value was “high polyreactivity”.

Which “polyreactivity (PSR sort gate)” value does the source give for “QVQLVESGGGLVQAGGSLSLICAASGGIIRYKAMGWYRQAPGKERELVAAISSGGNTNYADSVKGRFTISRDNAKNTVNLQMNSLKPEDTAVYYSAKAAPWRVYYHKAYGYDYWGQGPQVTVSS” here?
Its value is “high polyreactivity”.

With “QVQLVESGGGLVQAGGSLSLICAASGRTSVVNAMGWYRKAPGKERELVAAITSGGSTHYADSVKGRFTISRDNAKNTVYLQMNSLKPEDTAVYYCTKRGHPARLGYYYWGQGTQVTVSS” as the sequence, how does the “polyreactivity (PSR sort gate)” value read?
The value was “low polyreactivity”.

With “QVQLVESGGGLVQAGGSLSLICAASGSTITYNAMGWYRQAPGKETELVAAIDWDGDTTYYADSVKGRFTISRDNAKNTVYLQMNSLKPEDTAVYYCAAEFYSLGKAIYEYWGQGTQVTVSS” as the sequence, how does the “polyreactivity (PSR sort gate)” value read?
The value was “high polyreactivity”.

Which “polyreactivity (PSR sort gate)” value does the source give for “QVQLVESGGGLVQAGGSLSLRCAASGRIFTVYAMVWYRPAPGKEMELVAAISKRDGSTSYADSVKGRFTISRDNAKNTVYLQMNSLKPEDTAVYYCNARNHVQVLFRRDYWGQGTQVTVSS” here?
The value was “low polyreactivity”.

With “QVQLVESGGGLVQAGGSLSLSCAASGATFVRNAMGWYRQAPGKERELVAVISFRGGRTYYADSVKGRFTISRDNAKNTVYLQMNSLNPEDTAVYYCAKDRVASGVISSVDSWGQGTLVTVSS” as the sequence, how does the “polyreactivity (PSR sort gate)” value read?
Its value is “low polyreactivity”.

With “QVQLVESGGGLVQAGGSLSLSCAASGFNFGVNTRGWDRQAPGKERELVAAITGSGSSTDYADSVKGRFTISRDNAKNPVYLQMHRLKPEDTAVYYCAASYYSNYPTYLRYYDWGQGTQVTVSS” as the sequence, how does the “polyreactivity (PSR sort gate)” value read?
Its value is “high polyreactivity”.

Which “polyreactivity (PSR sort gate)” value does the source give for “QVQLVESGGGLVQAGGSLSLSCAASGIFSRYAMGWYRQAPGKERELVAAISSGGSTYYAESVKGRFTISRDNAKNTVYLQMNSLKPEDTAVYYCSVKQRDKFAGGRNDYWGQGTQVTVSS” here?
The value was “high polyreactivity”.

With “QVQLVESGGGLVQAGGSLSLSCAASGIIFGLYTMGWYRQAPGKERELVAAISDSGGRTYYADSVKGRFTISRDNAKNTVYLQMNSLKPEETAVYYCAAEFWYVWEYNYWGQCTQVTVSS” as the sequence, how does the “polyreactivity (PSR sort gate)” value read?
The value was “high polyreactivity”.

For “QVQLVESGGGLVQAGGSLSLSCAASGINFWRYAMGWYRPAPGKERELVAGITSRGGSTYYADSVKGRFTISRDNAKNTVYLQMNSLKPEDTAVYYCNADWYGQLWWGVDYWGQGTQVTVSS”, which “polyreactivity (PSR sort gate)” value is on record?
Its value is “high polyreactivity”.

Which “polyreactivity (PSR sort gate)” value does the source give for “QVQLVESGGGLVQAGGSLSLSCAASGLILRSYAMGWYRQAPWKERELVAAISGSGGRTYYADSVKGRFTISRDNAKNTVYLLMNSLKPEDTAVYYCAAGWTYRQNGYWGQGTQVTVSS” here?
The value was “high polyreactivity”.

Which “polyreactivity (PSR sort gate)” value does the source give for “QVQLVESGGGLVQAGGSLSLSCAASGLTFPKYAMGWYRQAPGKERELVDRISYSGASTYYADSVKGRFTISRDNAKNTVYLQMNSLKPEDTAVYYCAARIYRVYYVDFAPYYYWGQGTQVTVSS” here?
The value was “high polyreactivity”.

With “QVQLVESGGGLVQAGGSLSLSCAASGLTFYNYAMGWYRQAPGTERELVAAISRSGRTYYADSVKGRFTISRDNAKNTVDLQMNSLKPEDTAVYYCAAGHGGDPGSGYWGQGTEVTVSS” as the sequence, how does the “polyreactivity (PSR sort gate)” value read?
The value was “high polyreactivity”.

For “QVQLVESGGGLVQAGGSLSLSCAASGNIFSYNAMGWYRQAPGKERELVAAITWAGSTYADSVKGRFTISRDNAKNTVFLQRNSLKPEDTAVYYCNAANDSGYDYWGQGTQVTVSS”, which “polyreactivity (PSR sort gate)” value is on record?
Its value is “low polyreactivity”.

With “QVQLVESGGGLVQAGGSLSLSCAASGRIFYVNTMGWYRQAPGKERELVATISSAASTNYADSVKGRFTISRDNAKNTVYLQMNSLKPEDTAVYYCNAAFYKEYYYWGQGTQVTVSS” as the sequence, how does the “polyreactivity (PSR sort gate)” value read?
The value was “low polyreactivity”.

For “QVQLVESGGGLVQAGGSLSLSCAASGRITCGYAMGWYRQAPGKERELVAVINFNGGRTYYADSVKGRFTISRDNAKNTVYLQMNSLKPEDTAVYYCAADSGYEYDYWGQGTQVTVSS”, which “polyreactivity (PSR sort gate)” value is on record?
Its value is “low polyreactivity”.

Which “polyreactivity (PSR sort gate)” value does the source give for “QVQLVESGGGLVQAGGSLSLSCAASGRITRFNAMGWYRQAPGKERELVAAITRGASTYYADSVKGRFTISRDNAKNSVYLQMNRLKQEDTAVYYCAAAPRYSWTSVARYDYWGQGTQVTVSS” here?
The value was “high polyreactivity”.

For “QVQLVESGGGLVQAGGSLSLSCAASGRIYYYAMGWYRQAPGKERELVAAITGRGGSTYYADSVKGRFTISRDNAKNRVYLQMNSLKPEDTAVYYCARAGCPRHDWGQGTQVTVSS”, which “polyreactivity (PSR sort gate)” value is on record?
The value was “high polyreactivity”.

For “QVQLVESGGGLVQAGGSLSLSCAASGRLFKIDAMGWYRQAPGKERELVATISSGGRTNYADSVKGRFTISRDNAKNSVYLQMNSLKPEVTAVYYCNAGARVLYETESFDYWGQGIQVTVSS”, which “polyreactivity (PSR sort gate)” value is on record?
Its value is “low polyreactivity”.

With “QVQLVESGGGLVQAGGSLSLSCAASGRTFAPYAMGWYRQAPGKEREFVAGITWSSSSTYADSVKGRFTISRDNAKITVYFQMNSLKPEDPAVYYCAASHAKGGNRHYYWGQGTQVTVSS” as the sequence, how does the “polyreactivity (PSR sort gate)” value read?
The value was “high polyreactivity”.

Which “polyreactivity (PSR sort gate)” value does the source give for “QVQLVESGGGLVQAGGSLSLSCAASGRTFVPYAMGWYRQAPGKERELVADITDGDGSTYADSVKGRFTISRDNAKNTVYLQMNSLKPEYTAVYYCAAQSRRLVTRWPVTFGYWGQGTQVTVSS” here?
Its value is “low polyreactivity”.

Which “polyreactivity (PSR sort gate)” value does the source give for “QVQLVESGGGLVQAGGSLSLSCAASGRTFWYKDMGWYRQAPGKERELVAVISSGAITFYADSVKGRFTISRDNAKNTVYLQMNSLNPEDTAVYYCAARSYLSLIDYWGQGTLVTVSS” here?
The value was “high polyreactivity”.

For “QVQLVESGGGLVQAGGSLSLSCAASGSIFRGNAMGWYRQAPGKERELVAANSYSSGTTYYADSVKGRFTISRDNAKNTVYFQMNSLKPEDTAVYYCATRYYRGYVRGTHHVGGYYYRGQGTQVTVSS”, which “polyreactivity (PSR sort gate)” value is on record?
Its value is “low polyreactivity”.

With “QVQLVESGGGLVQAGGSLSLSCAASGSIFRSYAMGWYRQAPGKERELVAAITNGGSTYYADSVKGRFTISRDNAKNTVYLQMNSLKPEDTAVYYCAAARYTYWFYLVKKTGYYWGQGTQVTVSS” as the sequence, how does the “polyreactivity (PSR sort gate)” value read?
The value was “high polyreactivity”.

With “QVQLVESGGGLVQAGGSLSLSCAASGSIFSYYDMGWYIQAPGKERELVAGISRGGSTNYADSVKGRFTISRDNAKNTVYLQMNSLKPEDPAVYYCNADYIFWLTLFDYWGQGTQVTVSS” as the sequence, how does the “polyreactivity (PSR sort gate)” value read?
Its value is “low polyreactivity”.

For “QVQLVESGGGLVQAGGSLSLSCAASGSILGYYAMGWYRQAPGKERELVAAISGRGGSTYYADSVKGRFTISRDNAKNPVYLQMNSLKPEDTAVYYCAKRSVWRGWGQGTQVTVSS”, which “polyreactivity (PSR sort gate)” value is on record?
The value was “high polyreactivity”.

For “QVQLVESGGGLVQAGGSLSLSCAASGSILYFNAMGWYRQAPGKERELVAAISRSGGSTYYADSVKGRFTISRDNAKNTVYIQMNSLKPEDTAVYSCAASYTVYYWGQGTQVTVTS”, which “polyreactivity (PSR sort gate)” value is on record?
Its value is “high polyreactivity”.

For “QVQLVESGGGLVQAGGSLSLSCAASGSISYRYAMGWYRQAPGKERELVAAITSGGRTYYADSVKGRFTISRDNAKYTVYLQMNSLKPEDTAVYYCAKSKPVGPYYYWGQGTQVTVSS”, which “polyreactivity (PSR sort gate)” value is on record?
Its value is “high polyreactivity”.

With “QVQLVESGGGLVQAGGSLSLSCAASGSLFRPNAMGWYRQAPGKERELVAAITWSGDSTYYADSVKGRFTISRDNAKNTVYLQMNSLKPEATAVYYCAADFTYQGSSANDYWGQGTQVTVSS” as the sequence, how does the “polyreactivity (PSR sort gate)” value read?
Its value is “low polyreactivity”.

For “QVQLVESGGGLVQAGGSLSLSCAASGSNFNVYVMGWYRQAPGKERELVAAITYRGASTYYADSVKGRFTFSRDNAKNTVYLQMNSLKPEDTAVYYCAARYGYRSVYRSYNSRPYDYWGQGTQVTVSS”, which “polyreactivity (PSR sort gate)” value is on record?
Its value is “high polyreactivity”.

Which “polyreactivity (PSR sort gate)” value does the source give for “QVQLVESGGGLVQAGGSLSLSCAASGSTFAYYAMGGYRQAPGKERELVAGITWTGGSTYYADSVKGRFTISRDNAKNTVYLQMNSLKPEDTAVYYCAVTYPYGYEYDHWGQGTQVTVSS” here?
Its value is “low polyreactivity”.

For “QVQLVESGGGLVQAGGSLSLSCAASGSTFTEYAMGWDRQAPGKERELVAGISSDGSTKYADSVKGRFTISRDNAMNTVYLQMNSLKTEDTAVYYCYIVQSYAKYDYWGQGTQVTVSS”, which “polyreactivity (PSR sort gate)” value is on record?
The value was “low polyreactivity”.
